One data set relates to mouse plasma albumin. The class given is in vitro ADME. The protocol: (§1) To study the binding of the test compounds to human/mouse plasma albumin. • 1. Blank matrix preparation: On the day of the experiment, the plasma was thawed in cold water and centrifuged at 3220 rpm for 5 min to remove all the blood clots. The pH of the resulting plasma was measured and adjusted to 7.4±0.1 with 1% phosphoric acid or 1 N sodium hydroxide as desired. • 2. Dilution of the test compounds: the test compounds were dissolved in dimethyl sulfoxide (DMSO) to prepare stock solutions of 10 mM and 2 mM, respectively. 2 μL of the stock solution (2 mM) was diluted with 98 μL of DMSO to obtain a working solution of 40 μM. 10 μL of the stock solution was diluted with 240 μL of DMSO to obtain a working solution of control compounds of 400 μM. A working solution of the compounds (5 μL) was mixed evenly with a blank matrix (995 μL) at a ratio of 1:200 to prepare a loading matrix. • 3. Analytical procedure • 3.1 Equal amounts of 30 μL of the loading matrix (n=2) were transferred into a sample collection plate to prepare Time 0 (T0) samples for residue determination. The samples were immediately matched with corresponding blank buffer to a final volume of 60 μL, with a volume ratio of plasma (the loading matrix) to buffer being 1:1 in each well. Then, into the TO samples of the test compounds were respectively added 60 μL of 4% H3PO4 in H2O and 480 μL of stop solution containing internal standard. They were then stored at 2° C. to 8° C. together with other samples for further treatment. • 3.2 The remaining plasma samples were pre-incubated in a carbon dioxide incubator at 37±1° C. for 30 min. Protein-free samples (F samples) were prepared. Matrix-loaded samples (230 μL) were all transferred into polycarbonate tubes (n=2) and ultracentrifuged at 37° C. and 155,000×g (35000 rpm) for 4 h. • 3.3 To prepare T samples (test samples), an additional matrix-containing sample was transferred into a separate 96-well plate (sample incubation plate) and incubated at 37° C. for 4 h. • 3.4 At the end of centrifugation, 30 μL of protein-free samples (F samples) and 30 μL of T samples were taken from the second layer (beneath the upper layer) of the supernatant and transferred into a new sample collection plate. Each sample was mixed with corresponding blank buffer or matrix to a final volume of 60 μL, and the blank matrix:buffer volume ratio is 1:1. Into all the samples were added 60 μL of 4% H3PO4 solution in water and 480 μL of stop solution containing internal standard. The mixture was centrifuged at 4000 rpm for 20 min. 100 μL of supernatant for each sample was taken for LC-MS/MS analysis.

A further data set relates to human plasma albumin. It counts as in vitro ADME. As to the method: as §1
On the set-up of data set [1]: species or system Cynomolgus macaques. To be noted: cynomolgus monkey, in vivo, sc, 0.02 mg/kg. The protocol:
(§2) To test the pharmacokinetic profiles of the compounds in Cynomolgus macaques. The pharmacokinetic characteristics in mammals following intravenous injection and subcutaneous injection of the compounds were tested using standard protocols. In the experiment, the candidate compounds were formulated into clear solution, which was administered to Cynomolgus macaques by single subcutaneous injection (SC, 0.02 mpk). The vehicle for subcutaneous injection was citrate buffer solution (20 mM, pH=7). The whole blood was collected and processed to get the plasma. The drug concentration was analyzed by LC-MS/MS, and the pharmacokinetic parameters were calculated using Phoenix WinNonlin software.

On the set-up of data set [2]: species or system SD rats. To be noted: rat, in vivo, sc, 0.048 mg/kg. As to the method: as §2, with “SD rats.” for “Cynomolgus macaques.”, “rodent animals” for “mammals”, “following” for “following intravenous injection and”, “the rats” for “Cynomolgus macaques”, “0.048” for “0.02”, “for” for “for subcutaneous”
Details of data set [3]: species or system C57BL/6 mice. The conditions noted are these: mouse, in vivo, sc, 0.048 mg/kg. The protocol: as §2, with “C57BL/6 mice.” for “Cynomolgus macaques.”, “rodent animals” for “mammals”, “following” for “following intravenous injection and”, “administered” for “administered to Cynomolgus macaques”, “by” for “by single”, “0.048” for “0.02”
The target of the next data set is GLP-1R (UniProt P43220 24-463, limits assumed). As to the kind of experiment: cell-based or functional assay.
A further data set concerns the target T1, GIPR (UniProt P48546 22-466, limits assumed).
T1 sequence (looked up): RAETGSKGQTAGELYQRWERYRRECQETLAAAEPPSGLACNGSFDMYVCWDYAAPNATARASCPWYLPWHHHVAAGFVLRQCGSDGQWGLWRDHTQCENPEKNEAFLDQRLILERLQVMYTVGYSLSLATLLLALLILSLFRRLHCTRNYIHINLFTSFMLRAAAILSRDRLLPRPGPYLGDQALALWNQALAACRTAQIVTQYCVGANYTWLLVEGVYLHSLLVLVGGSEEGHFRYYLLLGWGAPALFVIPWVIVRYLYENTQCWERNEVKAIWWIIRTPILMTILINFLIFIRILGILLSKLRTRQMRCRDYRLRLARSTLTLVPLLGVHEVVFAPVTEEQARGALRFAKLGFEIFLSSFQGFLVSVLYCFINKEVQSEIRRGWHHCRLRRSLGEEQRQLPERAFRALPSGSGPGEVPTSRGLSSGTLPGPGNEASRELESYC
Description: cell-based or functional assay.

Like-named read-outs stand apart in the source and are kept apart here. Positions of bridges follow the written chain, without caps; N, C: chain ends. Non-standard residues stand in square brackets, D forms with d. No end group written: not given here. Ida bridge carrying fatty‑acid side chain of Intermediate A‑1 = not defined here; Aib = CC(C)(N)C(=O)O

One may read the AUC(0-t) as exposure summed from dosing to a finite time, without extrapolation to infinity. Lower therefore signals low exposure. As usually defined, the half-life is how long it takes for the measured level to halve. Higher therefore signals slow loss.

For `CC[C@H](C)[C@H](NC(=O)[C@H](CC(C)C)NC(=O)[C@H](Cc1c[nH]c2ccccc12)NC(=O)[C@H](CCC(=O)O)NC(=O)[C@@H](NC(=O)[C@H](Cc1ccccc1)NC(=O)[C@H](C)NC(=O)[C@@H]1CCCCNC(=O)CN(C(=O)COCCOCCNC(=O)COCCOCCNC(=O)CC[C@H](NC(=O)CCCCCCCCCCCCCCCCCCC(=O)O)C(=O)O)CC(=O)NCCCC[C@H](NC(=O)[C@H](CCCCN)NC(=O)[C@H](CC(=O)O)NC(=O)[C@H](CC(C)C)NC(=O)C(C)(C)NC(=O)[C@@H](NC(=O)[C@H](CO)NC(=O)[C@H](Cc2ccc(O)cc2)NC(=O)[C@H](CC(=O)O)NC(=O)[C@H](CO)NC(=O)[C@@H](NC(=O)[C@H](Cc2ccccc2)NC(=O)[C@@H](NC(=O)CNC(=O)[C@H](CCC(=O)O)NC(=O)C(C)(C)NC(=O)[C@@H](N)Cc2ccc(O)cc2)[C@@H](C)O)[C@@H](C)O)[C@@H](C)CC)C(=O)N[C@@H](C)C(=O)N[C@@H](CCC(N)=O)C(=O)N1)C(C)C)C(=O)N[C@@H](C)C(=O)NCC(=O)NCC(=O)N1CCC[C@H]1C(=O)N[C@@H](CO)C(=O)N[C@@H](CO)C(=O)NCC(=O)N[C@@H](C)C(=O)N1CCC[C@H]1C(=O)N1CCC[C@H]1C(=O)N1CCC[C@H]1C(=O)N[C@@H](CO)C(N)=O` [WX-005], the “PPB % unbound (M)” value in the data set on mouse plasma albumin is “NA/NA”. Besides, the “PPB % unbound (H)” value in the data set on human plasma albumin was “NA/NA”.

With `CC[C@H](C)[C@H](NC(=O)[C@H](CC(C)C)NC(=O)[C@H](Cc1c[nH]c2ccccc12)NC(=O)[C@H](CCC(=O)O)NC(=O)[C@@H](NC(=O)[C@H](Cc1ccccc1)NC(=O)[C@H](CCC(=O)O)NC(=O)[C@@H]1CCCCNC(=O)CN(C(=O)COCCOCCNC(=O)COCCOCCNC(=O)CC[C@H](NC(=O)CCCCCCCCCCCCCCCCCCC(=O)O)C(=O)O)CC(=O)NCCCC[C@H](NC(=O)[C@H](CCCCN)NC(=O)[C@H](CC(=O)O)NC(=O)[C@H](CC(C)C)NC(=O)C(C)(C)NC(=O)[C@@H](NC(=O)[C@H](CO)NC(=O)[C@H](Cc2ccc(O)cc2)NC(=O)[C@H](CC(=O)O)NC(=O)[C@H](CO)NC(=O)[C@@H](NC(=O)[C@H](Cc2ccccc2)NC(=O)[C@@H](NC(=O)CNC(=O)[C@H](CCC(=O)O)NC(=O)C(C)(C)NC(=O)[C@@H](N)Cc2ccc(O)cc2)[C@@H](C)O)[C@@H](C)O)[C@@H](C)CC)C(=O)N[C@@H](C)C(=O)N[C@@H](CCC(N)=O)C(=O)N1)C(C)C)C(=O)N[C@@H](C)C(=O)NCC(=O)NCC(=O)N1CCC[C@H]1C(=O)N[C@@H](CO)C(=O)N[C@@H](CO)C(=O)NCC(=O)N[C@@H](C)C(=O)N1CCC[C@H]1C(=O)N1CCC[C@H]1C(=O)N1CCC[C@H]1C(=O)N[C@@H](CO)C(N)=O` [WX-009], the AUC(0-t) was determined as 4.74 µM·h in data set [1], 1.09 µM·h in data set [2] and 1.99 µM·h in data set [3]. The half-life in data set [1] was 105 h; in data set [2], 21 h; in data set [3], 17 h. Also, in the data set on mouse plasma albumin, the “PPB % unbound (M)” value is “NA/NA”. Moreover, in the data set on human plasma albumin, the “PPB % unbound (H)” value is listed as “NA/NA”.

B1: polypeptide WX-010 (peptide)
peptide: Y[Aib]EGTFTSDYSI[Aib]LDKKAQKAFVEWLIAGGPSSGAPPPS-NH2
modifications: bridge 17-20; not fully specified (bridges); also: Glu bridge amino group carries fatty-acid side chain of Intermediate A-1
For the molecule B1, the “EC50, cAMP assay, (-) 1% HSA” value is 0.017 nM with GLP-1R and 0.14 nM in the data set with GIPR.

B2: polypeptide compound WX-001 (peptide)
peptide: Y[Aib]EGTFTSDYSI[Aib]LDKIAQKAFVKWLIAGGPSSGAPPPS-NH2
modifications: linker 20-24 via Ida bridge carrying fatty‑acid side chain of Intermediate A‑1; reading uncertain
In the case of B2, in the data set with GLP-1R, the “EC50, cAMP assay, (+) 1% HSA” value is 16.6 nM; the “EC50, cAMP assay, (-) 1% HSA” value was 0.0596 nM; the “Ratio (EC50 (+) 1% HSA over (-) 1% HSA)” value turned out to be 279. In the data set with GIPR, the “EC50, cAMP assay, (+) 1% HSA” value is 16 nM; the “EC50, cAMP assay, (-) 1% HSA” value was 0.324 nM; the “Ratio (EC50 (+) 1% HSA over (-) 1% HSA)” value worked out at 49.3.

B3: polypeptide WX-005 (peptide)
peptide: Y[Aib]EGTFTSDYSI[Aib]LDKKAQKAFVEWLIAGGPSSGAPPPS-NH2
modifications: linker 17-20 via Ida; also: Ida bridge carries fatty-acid side chain of Intermediate A-1
B3: in the data set with GLP-1R, the “EC50, cAMP assay, (+) 1% HSA” value is 7.63 nM; the “EC50, cAMP assay, (-) 1% HSA” value is 0.036 nM; the “Ratio (EC50 (+) 1% HSA over (-) 1% HSA)” value turned out to be 212. Also, in the data set with GIPR, the “EC50, cAMP assay, (+) 1% HSA” value came out at 19.3 nM; the “EC50, cAMP assay, (-) 1% HSA” value is 0.16 nM; the “Ratio (EC50 (+) 1% HSA over (-) 1% HSA)” value turned out to be 121.

B4: polypeptide WX-009 (peptide)
peptide: Y[Aib]EGTFTSDYSI[Aib]LDKKAQKEFVEWLIAGGPSSGAPPPS-NH2
modifications: linker 17-20 via Ida bridge carrying fatty‑acid side chain of Intermediate A‑1; reading uncertain
For the molecule B4, the “EC50, cAMP assay, (-) 1% HSA” value with GLP-1R was 0.014 nM; in the data set with GIPR, 0.074 nM.

For the origin of these results see US20260055142A1, “PHARMACEUTICAL USE OF POLYPEPTIDE IN PREPARATION OF DRUGS FOR TREATING AND/OR PREVENTING DIABETES AND OBESITY AND RELATED DISEASES THEREOF” (GUANGDONG RAYNOVENT BIOTECH CO., LTD., priority 2022, published 2026).
